Results from publication PMC9396825.
One block for each molecule: values may come before it.

Assays:
[1] = target: Pan1-FKBP (yeast Eps15-like protein Pan1p with a C-terminal FKBP tag) (yeast) (UniProt P32521); assay: inducible peroxisome redistribution assay
[2] = target: T1, Pan1-FKBP (yeast Eps15-like protein Pan1p with a C-terminal FKBP tag) (yeast), P32521; assay: inducible peroxisome redistribution assay; conditions: remark: other sources report otherwise
T1 chain: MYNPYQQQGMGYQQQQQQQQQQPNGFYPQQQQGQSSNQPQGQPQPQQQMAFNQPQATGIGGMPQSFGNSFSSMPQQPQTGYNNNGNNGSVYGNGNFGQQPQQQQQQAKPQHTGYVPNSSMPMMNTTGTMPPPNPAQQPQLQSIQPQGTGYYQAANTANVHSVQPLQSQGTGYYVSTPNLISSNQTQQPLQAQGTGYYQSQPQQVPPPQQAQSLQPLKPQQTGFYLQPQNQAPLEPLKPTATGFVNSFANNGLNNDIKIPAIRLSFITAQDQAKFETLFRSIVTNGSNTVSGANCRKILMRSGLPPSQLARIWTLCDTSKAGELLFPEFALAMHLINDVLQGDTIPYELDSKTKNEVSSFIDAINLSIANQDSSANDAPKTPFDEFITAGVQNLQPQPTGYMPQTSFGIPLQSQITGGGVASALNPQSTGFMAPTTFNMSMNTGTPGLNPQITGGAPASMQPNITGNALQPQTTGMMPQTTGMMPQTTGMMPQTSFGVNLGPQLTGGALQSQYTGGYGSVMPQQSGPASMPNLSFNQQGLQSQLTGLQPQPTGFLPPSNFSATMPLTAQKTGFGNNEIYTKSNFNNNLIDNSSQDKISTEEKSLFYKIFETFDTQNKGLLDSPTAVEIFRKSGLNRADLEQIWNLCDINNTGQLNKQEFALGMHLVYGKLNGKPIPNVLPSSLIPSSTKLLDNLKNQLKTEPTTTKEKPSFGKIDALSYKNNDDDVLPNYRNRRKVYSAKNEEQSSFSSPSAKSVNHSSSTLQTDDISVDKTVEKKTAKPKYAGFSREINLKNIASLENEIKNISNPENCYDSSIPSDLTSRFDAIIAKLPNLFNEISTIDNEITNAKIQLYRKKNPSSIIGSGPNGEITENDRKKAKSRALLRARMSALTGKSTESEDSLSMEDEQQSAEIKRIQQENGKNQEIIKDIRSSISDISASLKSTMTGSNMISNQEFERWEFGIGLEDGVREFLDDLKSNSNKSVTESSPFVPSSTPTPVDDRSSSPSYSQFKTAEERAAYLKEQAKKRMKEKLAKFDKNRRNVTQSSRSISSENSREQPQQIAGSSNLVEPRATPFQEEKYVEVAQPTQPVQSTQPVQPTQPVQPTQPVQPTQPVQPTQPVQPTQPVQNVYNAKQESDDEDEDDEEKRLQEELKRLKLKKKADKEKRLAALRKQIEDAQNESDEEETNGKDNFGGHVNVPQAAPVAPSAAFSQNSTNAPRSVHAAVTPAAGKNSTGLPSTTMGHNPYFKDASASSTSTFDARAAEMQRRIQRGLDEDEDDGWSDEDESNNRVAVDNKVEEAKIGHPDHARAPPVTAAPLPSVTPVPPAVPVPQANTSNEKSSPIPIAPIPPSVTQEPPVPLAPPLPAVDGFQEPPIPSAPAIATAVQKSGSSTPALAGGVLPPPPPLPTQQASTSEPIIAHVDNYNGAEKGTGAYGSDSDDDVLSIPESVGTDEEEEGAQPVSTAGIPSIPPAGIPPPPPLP

Molecule: GFP-fused Sla2p (from UniProt P33338 1-968) (natural protein)
percent localized to the peroxisome [1]: 72%

Molecule: Ent1-GFP (from UniProt Q12518 1-454) (natural protein)
percent localized to the peroxisome [1]: 64%

Continued, values first:

percent localized to the peroxisome [1]: 66.7%
Molecule: GFP-tagged Ent2p (from UniProt Q05785 1-613) (natural protein)

percent localized to the peroxisome [2]: 63.3%
B1: Sla1-GFP, P32790 1-1244 (natural protein)
chain: MTVFLGIYRAVYAYEPQTPEELAIQEDDLLYLLQKSDIDDWWTVKKRVIGSDSEEPVGLVPSTYIEEAPVLKKVRAIYDYEQVQNADEELTFHENDVFDVFDDKDADWLLVKSTVSNEFGFIPGNYVEPENGSTSKQEQAPAAAEAPAATPAAAPASAAVLPTNFLPPPQHNDRARMMQSKEDQAPDEDEEGPPPAMPARPTATTETTDATAAAVRSRTRLSYSDNDNDDEEDDYYYNSNSNNVGNHEYNTEYHSWNVTEIEGRKKKKAKLSIGNNKINFIPQKGTPHEWSIDKLVSYDNEKKHMFLEFVDPYRSLELHTGNTTTCEEIMNIIGEYKGASRDPGLREVEMASKSKKRGIVQYDFMAESQDELTIKSGDKVYILDDKKSKDWWMCQLVDSGKSGLVPAQFIEPVRDKKHTESTASGIIKSIKKNFTKSPSRSRSRSRSKSNANASWKDDELQNDVVGSAAGKRSRKSSLSSHKKNSSATKDFPNPKKSRLWVDRSGTFKVDAEFIGCAKGKIHLHKANGVKIAVAADKLSNEDLAYVEKITGFSLEKFKANDGSSSRGTDSRDSERERRRRLKEQEEKERDRRLKERELYELKKARELLDEERSRLQEKELPPIKPPRPTSTTSVPNTTSVPPAESSNNNNSSNKYDWFEFFLNCGVDVSNCQRYTINFDREQLTEDMMPDINNSMLRTLGLREGDIVRVMKHLDKKFGRENIASIPTNATGNMFSQPDGSLNVATSPETSLPQQLLPQTTSPAQTAPSTSAETDDAWTVKPASKSESNLLSKKSEFTGSMQDLLDLQPLEPKKAAASTPEPNLKDLEPVKTGGTTVPAAPVSSAPVSSAPAPLDPFKTGGNNILPLSTGFVMMPMITGGDMLPMQRTGGFVVPQTTFGMQSQVTGGILPVQKTGNGLIPISNTGGAMMPQTTFGAAATVLPLQKTGGGLIPIATTGGAQFPQTSFNVQGQQQLPTGSILPVQKTANGLISANTGVSMPTVQRTGGTMIPQTSFGVSQQLTGGAMMTQPQNTGSAMMPQTSFNAVPQITGGAMMPQTSFNALPQVTGGAMMPLQRTGGALNTFNTGGAMIPQTSFSSQAQNTGGFRPQSQFGLTLQKTGGIAPLNQNQFTGGAMNTLSTGGVLQQQQPQTMNTFNTGGVMQELQMMTTFNTGGAMQQPQMMNTFNTDGIMQQPQMMNTFNTGGAMQQPQQQALQNQPTGFGFGNGPQQSRQANIFNATASNPFGF
